Reference: patent publication US20150104459A1

B1: TCN-522 (3212_I12) (antibody, V domains shown)
VH: QVQLQQWGAGLLKPSETLSLTCTVSGGSLTDYSWNWIRQPPGKGLEWIGDTLHNGYTNYNPSLRGRVSISIDTSKNQVSLRLTSVTAADTALYYCARGSGGYGGFDYFGKLRTWDFWGQGTLVTVSS
VL: DIQLTQSPSSLSASVGDRVTITCRASQGIRNDLGWYQQKPGNAPKRLIFGASSLQSGVPSRFSGSGSGTEFTLTISSLQPEDFATYYCLQHNSYPYTFGQGTKLEIK
B2: TCN-538 (3206_O17) (antibody, V domains shown)
VH: QITLKESGPTLVKPTQTLTLTCVFSGFSLSITGVRVGWIRQPPGKALEWLALISWDDEKHYSPSLQSRLTITKDTSKNQVVLTMTNLDPVDTATYYCARSTDRGHVLRYFGWMLPGDAFDVWGQGTMVTVSS
VL: DIVMTQSPDFLPVSLGERATINCKSSQRVLYSSNNKNYLAWYQLKPGQPPKLIIYWASTRESGVPDRFSGSGSGTEFTLTISSLQAEDVAVYYCQQYYSRPYTFGQGTKLEIK
B3: TCN-545 (5082_I15) (antibody, V domains shown)
VH: QVQLQQWGAGLLKPSETLSLSCAVFGGSFSDYYWTWIRQPPGKGLEWIGEIKHSGRTNYNPSLESRVTISVDTSKNQFSLKLSSVTAADTAIYYCARGTDPDTEGYCRSGSCSAFDFWGQGTLVTVSS
VL: EIVLTQSPGTLSLSPGERATLSCRASHFVNYRSLAWYQQTPGQVPRLLIYGASTRATGIPDRFSGSGSGTDFTLTISRLEPEDFAVYFCQQYGGSPRYTFGQGTRLEIK
B4: TCN-547 (5092_F11) (antibody, V domains shown)
VH: QVQLQESGPGLVKPSQTLSLTCTVSGDSISSVDHYWSWIRQHPVKGLEWIGFMYYSASTYYNPSLKSRVTISTDTSKNQFSLRLSSVTAADTAVYYCARGTCAGDCSLHYYYYGLDVWGQGRTVTVSS
VL: DIQMTQSPSSLSASVGDRVTITCRASQSISSYLNWYQHKPGKAPKVLMYAVSILQSGVPSRFSGSGSGADFTLTISSLQPEDFATYYCQQSYSSPLTFGGGTKVEIK
B5: TCN-551 (5243_D01) (antibody, V domains shown)
VH: EVQLVQSGSEVKKPGESLKISCKGSGYSFSNYWIGWVRHMPGKGLEWMGIIYPGDSDTRYSPSFQGQVTMSADKSSSTVYLQWSSLKASDTAIYYCARRGGHSFGYGSGGDTHSEFDSWGQGTLVTVSS
VL: QSVLTQSPSVSAAPGQKVTISCSGSDSNIGDYFVCWYQHLPGKPPQLLIYENNKRPSGIPDRFSGSKSGTSATLGITGIQTGDEADYYCATWDGSLSAWVFGGGTKLTVL
B6: TCN-526 (5084_C17) (antibody, V domains shown)
VH: EVLMVESGGGLVQPGGSVRLSCVASGFSFSSHWMTWVRQAPGKGLEWVANIEDDGGDKYYVDSVKGRFIISRDNAKNSVYLQMNSLRAEDTAVYFCARGSGSSDRSDYDPHYYYYLDVWGKGATVTVSS
VL: DIQLTQSPSSLSASVGDRVTITCRASQSISRYLNWYQQKPGKAPKLLLFAASTLLDGVPSRFSGSGSGTDFTLTISSLQPEDFATYYCQRNHSPSWTFGQGTRVEIK
B7: TCN-542 (5079_A16) (antibody, V domains shown)
VH: QVQLQESGPGLVKPSQTLSLTCTVSGGSISSGNYYWNWVRQHPGKGLEWIGYIYYRGSTFYNPSLKSRVTISIDTSKNQFSLRLSSVTAADTAVYYCAKDTRSSLDNYQYGMDVWGQGTTVTVSS
VL: QTVVTQEPSLTVSPGGTVTLTCASSTGAVTSSYFPNWFQQKPGQAPRPLIYSTTIRHSWTPARFSGSLLGGKAALTLSGVQPEDEADYYCLLYSGGDPVAFGGGTKLTVL
B8: TCN-539 (5056_A08) (antibody, V domains shown)
VH: QVQLVESGGGVVQPGRSLRLSCAASEITFITYAMHWVRQAPGKGLEWVALISDDGSNKFYADSVKGRFTISRDNSKNTLYLQMNSLRAEDTAAYYCAREGVYFDSGTYRGYFDYWGQETLVTVSS
VL: EIVLTQSPATLSLSPGERATLSCRASQSVSSYLAWYQQKPGQAPRLLIYDASNRATGIPARFSGSGSGTDFTLTISSLEPEDFAVYYCQQRSHWPPITFGQGTRLEIK

Legend:
Conditions in all cases: remark: other sources report otherwise
[1] = biological target: recombinant soluble homotrimeric HA of A/Indonesia/5/05 (H5N1) (Influenza A virus A/Indonesia/5/2005 (H5N1)); assay: HA microarray, BCC supernatant
[2] = biological target: recombinant soluble homotrimeric HA of A/Wisconsin/67/05 (H3N2) (Influenza A virus A/Wisconsin/67/2005 (H3N2)); assay: HA microarray, BCC supernatant
[3] = biological target: recombinant soluble homotrimeric HA of A/Solomon Islands/3/06 (H1N1) (Influenza A virus A/Solomon Islands/3/2006 (H1N1)); assay: HA microarray, BCC supernatant
[4] = biological target: recombinant soluble homotrimeric HA of A/California/4/09 (H1N1) (Influenza A virus A/California/04/2009 (H1N1)); assay: HA microarray, BCC supernatant
[5] = biological target: recombinant soluble homotrimeric HA of A/Japan/305/57 (H2N2) (Influenza A virus A/Japan/305/1957 (H2N2)); assay: HA microarray, BCC supernatant
[6] = biological target: recombinant soluble homotrimeric HA of A/Vietnam/1203/04 (H5N1) (Influenza A virus A/Vietnam/1203/2004 (H5N1)); assay: HA microarray, BCC supernatant
[7] = biological target: T1, recombinant homotrimeric HA, A/swine/Ontario/01911-2/99 H4N6 (Influenza A virus A/swine/Ontario/01911-2/99 (H4N6)); assay: trimeric HA microarray; transfection supernatant set 2
[8] = biological target: recombinant soluble homotrimeric HA of A/northern shoveler/California/HKWF115/2007 (H6N1) (Influenza A virus A/northern shoveler/California/HKWF115/2007 (H6N1)); assay: HA microarray, BCC supernatant
[9] = biological target: recombinant soluble homotrimeric HA of A/Egypt/3300-NAMRU3/08 (H5N1) (Influenza A virus A/Egypt/3300-NAMRU3/2008 (H5N1)); assay: HA microarray, BCC supernatant
[10] = biological target: recombinant soluble homotrimeric HA of A/Netherlands/219/03 (H7N7) (Influenza A virus A/Netherlands/219/03 (H7N7)); assay: HA microarray, BCC supernatant
[11] = biological target: recombinant soluble homotrimeric HA of A/chicken/Vietnam/NCVD-016/08 (H5N1) (Influenza A virus A/chicken/Vietnam/NCVD-016/2008 (H5N1)); assay: HA microarray, BCC supernatant
[12] = biological target: recombinant soluble homotrimeric HA of A/duck/Yangzhou/02/2005 (H8N4) (Influenza A virus A/duck/Yangzhou/02/2005 (H8N4)); assay: HA microarray, BCC supernatant
[13] = biological target: recombinant soluble homotrimeric HA, A/Hong Kong/156/97 (H5N1) (influenza A virus A/Hong Kong/156/97 (H5N1)); assay: microarray, trimeric HA, transfection supernatant
[14] = biological target: recombinant soluble homotrimeric HA, A/northern shoveler/California/HKWF115/2007 (H6N1) (influenza A virus A/northern shoveler/California/HKWF115/2007 (H6N1)); assay: microarray, trimeric HA, transfection supernatant
[15] = biological target: recombinant soluble homotrimeric HA, A/chicken/Vietnam/NCVD-016/08 (H5N1) (influenza A virus A/chicken/Vietnam/NCVD-016/2008 (H5N1)); assay: microarray, trimeric HA, transfection supernatant
[16] = biological target: recombinant homotrimeric HA, A/Wisconsin/67/05 H3N2 (Influenza A virus A/Wisconsin/67/05 (H3N2)); assay: trimeric HA microarray; transfection supernatant set 5
[17] = biological target: recombinant soluble homotrimeric HA, A/duck/Yangzhou/02/2005 (H8N4) (influenza A virus A/duck/Yangzhou/02/2005 (H8N4)); assay: microarray, trimeric HA, transfection supernatant
[18] = biological target: recombinant soluble homotrimeric HA, A/Anhui/1/05 (H5N1) (influenza A virus A/Anhui/1/2005 (H5N1)); assay: microarray, trimeric HA, transfection supernatant
[19] = biological target: recombinant homotrimeric HA, A/California/4/09 H1N1 (Influenza A virus A/California/4/09 (H1N1)); assay: trimeric HA microarray; transfection supernatant set 5
[20] = biological target: recombinant soluble homotrimeric HA, A/Netherlands/219/03 (H7N7) (influenza A virus A/Netherlands/219/03 (H7N7)); assay: microarray, trimeric HA, transfection supernatant
[21] = biological target: recombinant soluble homotrimeric HA of A/Anhui/1/05 (H5N1) (Influenza A virus A/Anhui/1/2005 (H5N1)); assay: HA microarray, BCC supernatant
[22] = biological target: recombinant homotrimeric HA, A/Egypt/3300-NAMRU3/08 H5N1 (Influenza A virus A/Egypt/3300-NAMRU3/08 (H5N1)); assay: trimeric HA microarray; transfection supernatant set 5
[23] = biological target: recombinant homotrimeric HA, A/Solomon Islands/3/06 H1N1 (Influenza A virus A/Solomon Islands/3/06 (H1N1)); assay: trimeric HA microarray; transfection supernatant set 2
[24] = biological target: recombinant homotrimeric HA, A/Japan/305/57 H2N2 (Influenza A virus A/Japan/305/57 (H2N2)); assay: trimeric HA microarray; transfection supernatant set 5
[25] = biological target: T1, recombinant homotrimeric HA, …; assay: as above

| Binder | Trimeric HA Binding RLU [1] | Trimeric HA Binding RLU [2] | Trimeric HA Binding RLU [3] | Trimeric HA Binding RLU [4] | Trimeric HA Binding RLU [5] | Trimeric HA Binding RLU [6] | Trimeric HA Binding RLU [9] | Trimeric HA Binding RLU [11] | Trimeric HA Binding RLU [12] | Trimeric HA Binding RLU [13] | Trimeric HA Binding RLU [14] | Trimeric HA Binding RLU [15] | Trimeric HA Binding RLU [17] | Trimeric HA Binding RLU [18] | further results |
| --- | --- | --- | --- | --- | --- | --- | --- | --- | --- | --- | --- | --- | --- | --- | --- |
| B1 | 67 RLU | 302 RLU | 38900 RLU | 5020 RLU | 989 RLU | 145 RLU | – | – | – | – | – | – | – | – | Trimeric HA Binding: RLU [7]: 1050 RLU |
| B2 | 26400 RLU | 6900 RLU | 33200 RLU | 13800 RLU | 43000 RLU | – | 23600 RLU | 37300 RLU | 6120 RLU | 5170 RLU | 8900 RLU | 2950 RLU | – | – | Trimeric HA Binding RLU [8]: 17400 RLU; Trimeric HA Binding RLU [10]: 6530 RLU; Trimeric HA Binding: RLU [16]: 2070 RLU |
| B3 | – | 575 RLU | – | 365 RLU | 157 RLU | 235 RLU | – | 392 RLU | – | 1560 RLU | – | 3230 RLU | 13200 RLU | 4880 RLU | Trimeric HA Binding: RLU [19]: 818 RLU |
| B4 | – | 16900 RLU | 155 RLU | 170 RLU | 40 RLU | – | – | 198 RLU | 278 RLU | – | 2620 RLU | 1320 RLU | 3340 RLU | – | Trimeric HA Binding RLU [10]: 401 RLU; Trimeric HA Binding RLU [20]: 2090 RLU; Trimeric HA Binding: RLU [19]: 1470 RLU |
| B5 | 53500 RLU | 6840 RLU | 53800 RLU | 53400 RLU | 22600 RLU | 4150 RLU | 47200 RLU | – | 9820 RLU | 792 RLU | – | 792 RLU | – | – | Trimeric HA Binding RLU [21]: 4190 RLU; Trimeric HA Binding: RLU [16]: 936 RLU; Trimeric HA Binding: RLU [22]: 17400 RLU |
| B6 | – | 49300 RLU | 341 RLU | – | 246 RLU | – | – | 179 RLU | – | – | – | – | – | – | Trimeric HA Binding: RLU [23]: 1470 RLU |
| B7 | – | – | – | – | 142 RLU | – | – | – | 332 RLU | 786 RLU | 2370 RLU | 5460 RLU | 11600 RLU | 7410 RLU | Trimeric HA Binding: RLU [24]: 5180 RLU |
| B8 | – | 715 RLU | 239 RLU | – | 468 RLU | 545 RLU | 11400 RLU | 100 RLU | – | 1450 RLU | 2860 RLU | 3500 RLU | – | 3240 RLU | Trimeric HA Binding: RLU [25]: 6510 RLU; Trimeric HA Binding: RLU [22]: 24300 RLU |
